{"source": "patent US20260248947A1", "about": "“Methods of Treating Cancer Using Anti-HER2 Antibody-Drug Conjugates and HER2 Kinase Inhibitors” (Seagen Inc., priority 2023, published 2026)", "key": {"[1]": {"test_system": "gastric cancer PDX models", "assay": "Tumor volume in gastric cancer PDX models with variable HER2 expression", "assay_type": "in vivo, Mice", "conditions": "in a majority of the six PDX models; DV 2 mg/kg intravenous single dose", "excerpt": "FIGS. […] show the effects of combining DV and tucatinib vs. DV as a single agent in gastric cancer patient-derived xenograft (PDX) models with varying HER2 expression levels: GA13745 (IHC 1+; FIGS. 12A, 12B), GA6821 (IHC 1+; FIGS. 12C, 12D), CTG-0148 (IHC 1+; FIGS. 12E, 12F), CTG-3036 (IHC 2+; FIGS. 12G, 12H), CTG-3033 (IHC 3+; FIGS. 12I, 12J), and GA3102 (IHC 3+; FIGS. 12K, 12L). Treatment with T-DXd, a HER2-directed ADC, was also included in the study. Tumor volume data shown as mean±SEM. For each model, tumor growth was evaluated using a normalized area under the curve (AUC) metric (see, Guo, S. et al. (2019) BMC Cancer 19, 718) (FIGS. 12A, 12C, 12E, 12G, 12I, 12K). AUC was calculated for each model for the duration of the experiment, then compared by one-way ANOVA followed by Tukey's post-hoc test. The box-and-whisker plots represent the median and range for each treatment group (FIGS. 12B, 12D, 12F, 12H, 12J, 12L). […]\nDV and tucatinib were tested as monotherapies and in combination in PDX models with varying HER2 expression levels. […] Mice (n=10/group) were treated with tucatinib (50 mg/kg oral, twice daily), DV (2 mg/kg, intravenous, single dose), a combination of tucatinib and DV, or T-DXd (2 mg/kg, intravenous, single dose), and tumor volume was measured over time."}, "HCC-1954": {"test_system": "HCC-1954", "assay": "144-hour CellTiter-Glo cytotoxicity assay, DV and T-DXd", "assay_type": "cell-based", "conditions": "HCC-1954, 1,259,000 HER2 receptors/cell, 1-10,000 ng/mL", "method": "(§1) DV and T-DXd were evaluated against breast cancer cell lines spanning a range of HER2 expression levels (calculated by quantitative flow cytometry): HCC-1954 with 1,259,000 HER2 receptors/cell, MDA-MB-361 with 60,000 HER2 receptors/cell, and HCC-38 with 20,000 HER2 receptors/cell. Drugs were titrated (1-10,000 ng/mL), and viability was tested in a 144-hour CellTiter-Glo cytotoxicity assay."}, "HCC-38": {"test_system": "HCC-38", "assay": "144-hour CellTiter-Glo cytotoxicity assay, DV and T-DXd", "assay_type": "cell-based", "conditions": "HCC-38, 20,000 HER2 receptors/cell, 1-10,000 ng/mL", "method": "as §1"}, "MDA-MB-361": {"test_system": "MDA-MB-361", "assay": "144-hour CellTiter-Glo cytotoxicity assay, DV and T-DXd", "assay_type": "cell-based", "conditions": "MDA-MB-361, 60,000 HER2 receptors/cell, 1-10,000 ng/mL", "method": "as §1"}, "[2]": {"test_system": "panel of breast cancer cell lines spanning a range of HER2 expression", "assay": "96-hour CellTiterGlo cytotoxicity assay of DV, T-DM1 and T-DXd", "assay_type": "cell-based", "method": "The following cell lines were cultured in the vendor-recommended conditions: breast cancer cell lines SK-BR-3, BT-474, UACC-893, HCC-202, JIMT-1, and BT-483. Cytotoxicity assays were performed using CellTiter-Glo (CTG) Luminescent Cell Viability assay (Promega Corporation) as per the manufacturer's protocol. Cells were seeded in 96-well plates and incubated overnight as previously described (1). […] Cells were then incubated at 37° C. in 5% CO2, and cell viability was measured at 96 hours after dosing.\nInternalization of anti-HER2 ADCs DV, T-DM1, and T-DXd (two HER2-targeting ADCs with trastuzumab as a backbone) was also tested in breast cancer cell lines SK-BR-3, HCC-202, and BT-483."}, "[3]": {"test_system": "PDO SG-634-395-2953 (HER2 low)", "assay": "Patient-derived organoid cytotoxicity, caspase-3/7 fluorescence imaging", "assay_type": "cell-based", "conditions": "DV 27-6,700 ng/mL, T-DXd 41-10,000 ng/mL", "method": "(§2) DV and T-DXd were also tested against a panel of PDOs: HER2 low SG-111-444-6273, HER2 low SG-634-395-2953, and HER2 moderate SG-553-819-8499. DV was titrated across a range of 27-6,700 ng/mL, while T-DXd was titrated across a range of 41-10,000 ng/mL. Drug and media was exchanged every four days. Analysis was conducted with fluorescence imaging: PDOs were identified from clusters of Hoechst positive cells, and caspase-3/7 was used for the identification of apoptotic cells. Mean caspase-3/7 intensity was measured per well and normalized to cell count."}, "[4]": {"test_system": "PDO SG-111-444-6273 (HER2 low)", "assay": "Patient-derived organoid cytotoxicity, caspase-3/7 fluorescence imaging", "assay_type": "cell-based", "conditions": "DV 27-6,700 ng/mL, T-DXd 41-10,000 ng/mL", "method": "as §2"}, "[5]": {"test_system": "PDO SG-553-819-8499 (HER2 moderate)", "assay": "Patient-derived organoid cytotoxicity, caspase-3/7 fluorescence imaging", "assay_type": "cell-based", "conditions": "DV 27-6,700 ng/mL, T-DXd 41-10,000 ng/mL", "method": "as §2"}}, "data": [{"substance": "disitamab vedotin [DV]", "values": [{"measurement": "anti-tumor activity of DV monotherapy", "setting": "[1]", "value": "anti-tumor activity"}, {"measurement": "single-agent cytotoxic activity as compared to T-DXd", "setting": "HCC-1954", "value": "more potent single-agent cytotoxic activity"}, {"measurement": "single-agent cytotoxic activity as compared to T-DXd", "setting": "HCC-38", "value": "more potent single-agent cytotoxic activity"}, {"measurement": "single-agent cytotoxic activity as compared to T-DXd", "setting": "MDA-MB-361", "value": "more potent single-agent cytotoxic activity"}, {"measurement": "IC50 compared with the IC50 for T-DM1 and T-DXd", "setting": "[2]; for each cell line of the panel", "value": "lower"}, {"measurement": "in vitro cytotoxic activity against the panel of breast cancer cell lines", "setting": "[2]; variable HER2 expression, including HER2-low range, 0.01-10,000 ng/mL", "value": "in vitro cytotoxic activity"}, {"measurement": "single-agent cytotoxic activity as compared to T-DXd (caspase-3/7 intensity)", "setting": "[3]", "value": "more potent single-agent cytotoxic activity"}, {"measurement": "single-agent cytotoxic activity as compared to T-DXd (caspase-3/7 intensity)", "setting": "[4]", "value": "more potent single-agent cytotoxic activity"}, {"measurement": "single-agent cytotoxic activity as compared to T-DXd (caspase-3/7 intensity)", "setting": "[5]", "value": "more potent single-agent cytotoxic activity"}]}]}
